In US20110052582A1 (Hoffmann-La Roche, published 2011):
Numbering of substitutions follows the chain as printed.

T1: Soluble CDCP1 extracellular domain (CDCP1-ECD) (SEQ ID NO:30) fused to Streptavidin Binding Protein (SBP) (human, UniProt Q9H5V8 30-663)
T1 construct: also called SBP-CDCP1-ECD
T1 sequence: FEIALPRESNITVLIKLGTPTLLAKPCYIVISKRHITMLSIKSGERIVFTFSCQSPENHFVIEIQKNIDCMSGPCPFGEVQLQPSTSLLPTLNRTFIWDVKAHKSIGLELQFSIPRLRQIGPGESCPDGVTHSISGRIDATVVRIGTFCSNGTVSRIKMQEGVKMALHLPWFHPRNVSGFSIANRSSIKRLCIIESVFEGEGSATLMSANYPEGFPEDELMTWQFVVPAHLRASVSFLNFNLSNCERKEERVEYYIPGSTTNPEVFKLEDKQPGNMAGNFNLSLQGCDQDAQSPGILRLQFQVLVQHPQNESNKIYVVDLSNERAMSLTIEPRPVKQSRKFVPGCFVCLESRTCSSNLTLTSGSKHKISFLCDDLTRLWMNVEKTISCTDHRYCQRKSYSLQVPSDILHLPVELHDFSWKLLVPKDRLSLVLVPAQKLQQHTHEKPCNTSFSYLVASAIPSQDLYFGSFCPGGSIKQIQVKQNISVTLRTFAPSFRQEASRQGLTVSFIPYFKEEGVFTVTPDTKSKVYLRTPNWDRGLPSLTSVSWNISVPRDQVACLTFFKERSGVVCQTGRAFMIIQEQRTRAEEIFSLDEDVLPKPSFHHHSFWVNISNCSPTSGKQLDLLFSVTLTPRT

B1: hHC4-a / hLC4-e (antibody, V domains shown)
VH: EVQLVESGGGLVKPGGSLRLSCAASGFTFNSYGMSWVRQAPGKGLEWVSTISSGGSYTYYPDSVKGRFTISRDNAKNSLYLQMNSLRAEDTAVYYCARHPDYDGVWFAYWGQGTLVTVSS
VL: DIQMTQSPSSLSASVGDRVTITCSVSSSVFYVHWYQQKPGKAPKLLIYDTSKLASGVPSRFSGSGSGTDFTFTISSLQPEDIATYYCQQWNSNPPTFGGGTKVEIK
B2: hHC4-a / hLC4-K (antibody, V domains shown)
VH: B1 VH
VL: EIVLTQSPATLSLSPGERATLSCRASSSVFYLHWYQQKPGQAPRLWIYDTSKLASGIPARFSGSGSGTDFTLTISSLEPEDFAVYYCQQWNSNPPTFGGGTKVEIK
B3: hHC4-c / chLC4 (antibody, V domains shown)
VH: B1 VH with K13Q, S49A
VL: QIVLTQSPAIMSASPGEKVTMTCSVSSSVFYVHWYQQKSGTSPKRWIYDTSKLASGVPARFSGSGSGTSYSLTISSMEAEDAATYYCQQWNSNPPTFGGGTKLEIK
B4: hHC4-07 / hLC4-f (antibody, V domains shown)
VH: B1 VH with V5L, K13Q, G33A, A75S, S78T, R98K
VL: B1 VL with F70Y
B5: hHC4-c / hLC4-e (antibody, V domains shown)
VH: B1 VH with K13Q, S49A
VL: B1 VL
B6: hHC4-04 / hLC4-L (antibody, V domains shown)
VH: B1 VH with V5L, K13Q, A75S, S78T
VL: B2 VL with L21M
B7: hHC4-03 / hLC4-M (antibody, V domains shown)
VH: B1 VH with V5L, K13Q, T50A, A75S, S78T, R98K
VL: B2 VL with L21M, R24G, Q41L, A59D, S76R
B8: hHC4-03 / hLC4-L (antibody, V domains shown)
VH: B1 VH with V5L, K13Q, T50A, A75S, S78T, R98K
VL: B2 VL with L21M
B9: hHC4-04 / hLC4-L2 (antibody, V domains shown)
VH: B1 VH with V5L, K13Q, A75S, S78T
VL: B2 VL with L21M, R24S, A25V
B10: hHC4-c / hLC4-f (antibody, V domains shown)
VH: B1 VH with K13Q, S49A
VL: B1 VL with F70Y
B11: hHC4-03 / hLC4-b (antibody, V domains shown)
VH: B1 VH with V5L, K13Q, T50A, A75S, S78T, R98K
VL: B2 VL with R24S, A25V, L32V, W46L, F70Y
B12: hHC4-d / hLC4-f (antibody, V domains shown)
VH: B1 VH with V5L, K13Q, A75S, S78T, R98K
VL: B1 VL with F70Y
B13: hHC4-03 / hLC4-I (antibody, V domains shown)
VH: B1 VH with V5L, K13Q, T50A, A75S, S78T, R98K
VL: B2 VL with L4M, H33S, E78Q
B14: hHC4-H / hLC4-f (antibody, V domains shown)
VH: B1 VH with K13Q, S49A, T58K, P61V
VL: B1 VL with F70Y
notes: also called Humanized CUB4 Antibody No. 146
B15: hHC4-04 / hLC4-K (antibody, V domains shown)
VH: B1 VH with V5L, K13Q, A75S, S78T
VL: B2 VL
B16: hHC4-04 / hLC4-M (antibody, V domains shown)
VH: B1 VH with V5L, K13Q, A75S, S78T
VL: B2 VL with L21M, R24G, Q41L, A59D, S76R
B17: hHC4-03 / hLC4-a (antibody, V domains shown)
VH: B1 VH with V5L, K13Q, T50A, A75S, S78T, R98K
VL: B2 VL with R24S, A25V, L32V, W46L
B18: hHC4-K2 / hLC4-e (antibody, V domains shown)
VH: B1 VH with T50S, P61A
VL: B1 VL
B19: hHC4-K / hLC4-e (antibody, V domains shown)
VH: B1 VH with T50S, T58I, P61A
VL: B1 VL
B20: hHC4-04 / hLC4-e (antibody, V domains shown)
VH: B1 VH with V5L, K13Q, A75S, S78T
VL: B1 VL
B21: hHC4-a / hLC4-f (antibody, V domains shown)
VH: B1 VH
VL: B1 VL with F70Y
B22: hHC4-b / hLC4-f (antibody, V domains shown)
VH: B1 VH with G33S, S35N, T50S, T58I, P61A
VL: B1 VL with F70Y
B23: hHC4-H / chLC4 (antibody, V domains shown)
VH: B1 VH with K13Q, S49A, T58K, P61V
VL: B3 VL
B24: hHC4-b / chLC4 (antibody, V domains shown)
VH: B1 VH with G33S, S35N, T50S, T58I, P61A
VL: B3 VL
B25: hHC4-K / hLC4-f (antibody, V domains shown)
VH: B1 VH with T50S, T58I, P61A
VL: B1 VL with F70Y
B26: hHC4-04 / hLC4-J (antibody, V domains shown)
VH: B1 VH with V5L, K13Q, A75S, S78T
VL: B2 VL with L4M, L21M, E78Q
B27: hHC4-04 / hLC4-f (antibody, V domains shown)
VH: B1 VH with V5L, K13Q, A75S, S78T
VL: B1 VL with F70Y
B28: hHC4-04 / hLC4-a (antibody, V domains shown)
VH: B1 VH with V5L, K13Q, A75S, S78T
VL: B2 VL with R24S, A25V, L32V, W46L
B29: hHC4-d / hLC4-e (antibody, V domains shown)
VH: B1 VH with V5L, K13Q, A75S, S78T, R98K
VL: B1 VL
B30: hHC4-07 / hLC4-e (antibody, V domains shown)
VH: B1 VH with V5L, K13Q, G33A, A75S, S78T, R98K
VL: B1 VL
B31: hHC4-04 / hLC4-I (antibody, V domains shown)
VH: B1 VH with V5L, K13Q, A75S, S78T
VL: B2 VL with L4M, H33S, E78Q
B32: hHC4-04 / chLC4 (antibody, V domains shown)
VH: B1 VH with V5L, K13Q, A75S, S78T
VL: B3 VL
B33: hHC4-b / hLC4-e (antibody, V domains shown)
VH: B1 VH with G33S, S35N, T50S, T58I, P61A
VL: B1 VL
B34: hHC4-03 / hLC4-f (antibody, V domains shown)
VH: B1 VH with V5L, K13Q, T50A, A75S, S78T, R98K
VL: B1 VL with F70Y
B35: hHC4-I / hLC4-e (antibody, V domains shown)
VH: B1 VH with V5L, K13Q, G33A, T50A, P61A, A75S, S78T, R98K
VL: B1 VL

Target: T1, Soluble CDCP1 extracellular domain …
Assay: ELISA on captured SBP-CDCP1-ECD, ratio relative to chimeric CUB4 (chHC4)
Protocol: Soluble CDCP1 extracellular domain (CDCP1-ECD) (SEQ ID NO:30) fused to Streptavidin Binding Protein (SBP) was captured on a sreptavidine plate. To define optimal binding of the antibody to SBP-CDCP1-ECD, 384-well polystyrene plates (NUNC, streptavidin-coated) delivered by MicroCoat, Bernried, Germany (ID-No. 1734776-001) have been coated with pure and stepwise diluted HEK293 supernatant (in BSA/IMDM buffer: 100 mg/ml BSA Fraction V, Roche 10735078001, dissolved in Iscove's Modified Dulbeccos Medium). Using a calibration curve of mouse CUB4 antibodies the optimal dilution factor of the HEK293 supernatant in relation to the streptavidin binding capacity of the microtiter plate was identified. For the standard coating, SBP-CDCP1-ECD containing HEK293 supernatant was diluted (between 1:15 and 1:40) and incubated overnight at 2-8° C. (25 μl per well). Intensive washing of the microtiter plate is necessary to remove remaining unbound SBP-CDCP1-ECD.
Humanized CUB4 antibodies and/or reference antibody (chimeric (chHC4) CUB4 antibody comprising human constant region and mouse VH and VL of SEQ ID NO:1 and 2) were tested either undiluted or using a 12-step-dilution. 12.5 μl per well of each sample was incubated for 90 min at room temperature. After intensive washing using PBS-T (0.1% Tween 20 in PBS) 25 μl of either goat anti-human IgG antibodies coupled with HRP (Jackson ImmunoResearch, Code No: 109-036-098, dilution 1:10000) for human antibodies were added and incubated for 1 hour. After intensive washing the binding of the antibodies was detected with ABTS tablets (Roche Diagnostics GmbH, Cat. No.: 1112422). Absorbance at 405 nm/492 nm was measured using a standard photometer.

Binder | relative binding ratio | binding result
B1 | 0.46 | 
B2 | 0.51 | 
B3 | 1 | 
B4 | 0.07 | 
B5 | 0.25 | 
B6 | 0.68 | 
B7 | 0.14 | 
B8 | 0.17 | 
B9 | 0.67 | 
B10 | 0.34 | 
B11 | 0.07 | 
B12 | 0.4 | 
B13 |  | no binding
B14 | 0.42 | 
B15 | 0.57 | 
B16 | 0.82 | 
B17 | 0.07 | 
B18 | 0.07 | 

Binder | relative binding ratio | binding result
B19 |  | no binding
B20 | 0.2 | 
B21 | 0.5 | 
B22 |  | no binding
B23 | 1.12 | 
B24 |  | no binding
B25 |  | no binding
B26 | 0.4 | 
B27 | 0.37 | 
B28 | 0.39 | 
B29 | 0.27 | 
B30 | 0.07 | 
B31 |  | no binding
B32 | 0.71 | 
B33 |  | no binding
B34 | 0.07 | 
B35 | 0.07 | 
